Residue numbers refer to the chain shown, from its start. Values belong to the binder of their own block, whether it stands above or below them.
What was measured:
[1] = molecular target: T1, Smc3^QQ R1008I K1004C (S. cerevisiae, UniProt P47037 1-1230, K112Q | K113Q | K1004C | R1008I); assay: cross-linking; in vivo BMOE cross-link of cysteine pairs in yeast cells arrested in late G1 by non-degradable Sic1(9m); Scc1-PK immunoprecipitated, western blot, band intensities quantified; settings: partners not purified
T1 construct: Smc3, S. cerevisiae; also called smc3-QQ K1004C with R1008I; source: S. cerevisiae W303, late G1 arrested cells, whole-cell extract
T1 sequence (looked up): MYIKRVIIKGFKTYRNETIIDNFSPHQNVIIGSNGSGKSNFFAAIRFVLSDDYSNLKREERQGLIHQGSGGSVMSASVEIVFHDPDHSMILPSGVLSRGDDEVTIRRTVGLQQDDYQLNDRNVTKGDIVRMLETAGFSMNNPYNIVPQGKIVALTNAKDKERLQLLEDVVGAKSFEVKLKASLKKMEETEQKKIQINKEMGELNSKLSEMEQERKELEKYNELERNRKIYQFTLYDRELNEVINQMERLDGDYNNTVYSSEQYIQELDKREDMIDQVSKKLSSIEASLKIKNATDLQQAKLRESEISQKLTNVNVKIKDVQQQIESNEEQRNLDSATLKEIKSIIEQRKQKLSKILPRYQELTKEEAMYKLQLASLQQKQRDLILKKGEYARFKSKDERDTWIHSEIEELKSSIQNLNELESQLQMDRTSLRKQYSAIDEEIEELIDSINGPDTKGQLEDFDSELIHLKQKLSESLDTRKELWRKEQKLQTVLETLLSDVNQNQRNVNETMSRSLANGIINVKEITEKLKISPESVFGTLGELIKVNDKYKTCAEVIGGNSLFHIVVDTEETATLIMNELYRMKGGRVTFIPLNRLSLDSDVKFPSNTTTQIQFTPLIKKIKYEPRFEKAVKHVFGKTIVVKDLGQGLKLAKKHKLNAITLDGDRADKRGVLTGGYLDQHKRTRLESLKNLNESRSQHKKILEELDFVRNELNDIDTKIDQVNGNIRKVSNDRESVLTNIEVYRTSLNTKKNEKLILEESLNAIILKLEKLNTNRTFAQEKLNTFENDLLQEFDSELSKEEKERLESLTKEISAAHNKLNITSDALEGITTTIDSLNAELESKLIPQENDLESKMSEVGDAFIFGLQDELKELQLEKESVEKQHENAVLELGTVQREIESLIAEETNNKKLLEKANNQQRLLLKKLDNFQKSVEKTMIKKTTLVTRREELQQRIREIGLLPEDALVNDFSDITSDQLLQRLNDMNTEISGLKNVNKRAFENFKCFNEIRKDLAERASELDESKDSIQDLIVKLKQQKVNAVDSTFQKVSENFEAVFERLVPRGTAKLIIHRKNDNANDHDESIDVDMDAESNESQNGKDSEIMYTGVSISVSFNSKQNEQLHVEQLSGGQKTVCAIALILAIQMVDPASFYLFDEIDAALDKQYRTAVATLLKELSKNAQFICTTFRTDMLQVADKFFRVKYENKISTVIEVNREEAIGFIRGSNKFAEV

[2] = molecular target: T2, Smc3^QQ Q67C (S. cerevisiae, UniProt P47037 1-1230, Q67C | K112Q | K113Q); assay: as above; settings: partners not purified
T2 construct: Smc3, S. cerevisiae; source: S. cerevisiae W303, late G1 arrested cells, whole-cell extract
T2 sequence (looked up): T1 sequence (looked up) with Q67C, C1004K, I1008R

- crosslink relative to wild type [1]: ~70%
B1: Scc2 D369C (natural protein, S. cerevisiae, UniProt Q04002 1-1493, looked up)
chain: MSYPGKDKNIPGRIIEALEDLPLSYLVPKDGLAALVNAPMRVSLPFDKTIFTSADDGRDVNINVLGTANSTTSSIKNEAEKERLVFKRPSNFTSSANSVDYVPTNFLEGLSPLAQSVLSTHKGLNDSINIEKKSEIVSRPEAKHKLESVTSNAGNLSFNDNSSNKKTKTSTGVTMTQANLAEQYLNDLKNILDIVGFDQNSAEIGNIEYWLQLPNKKFVLTTNCLTKLQMTIKNITDNPQLSNSIEITWLLRLLDVMVCNIKFSKSSLKMGLDDSMLRYIALLSTIVLFNIFLLGKNDSNLHRESYIMEPVNFLSDLIESLKILTIEYGSLKIEFDTFQEALELLPKYIRNGPFLDDNVTAKLVYIFSCLLMNNDIEATTNIQFQSFWDNVKRISSDILVSLFGSFDQQRGFIIEELLSHIEKLPTKRIQKKLRKVGNQNIYITDFTFTLMSMLENINCYSFCNQMKDIAPENIDLLKNEYKKQEEFLFNIVEHINDTILERFFKNPSALRYVIDNFVQDLLLLISSPQWPVTEKILSSLLKRLLSVYSPSMQVSANIETICLQLIGNIGSTIFDIKCSTRDHEDNNLIKMINYPETLPHFFKSFEECIAYNETIKCRRSATRFLWNLRLGTILILEEYTKDAKEQIITVDNELKKILEQIKDGGLGPELENREADFSTIKLDYFSILHAFELLNLYDPYLKLILSLLAKDKIKLRSTAIKCLSMLASKDKVILSNPMVKETIHRRLNDSSASVKDAILDLVSINSSYFEFYQQINNNYNDDSIMVRKHVLRINEKMYDETNDIVTKVYVIARILMKIEDEEDNIIDMARLILLNRWILKVHEVLDQPEKLKEISSSVLLVMSRVAIMNEKCSQLFDLFLNFYLLNKEAHSKEAYDKITHVLTILTDFLVQKIVELNSDDTNEKNSIVDKQNFLNLLAKFADSTVSFLTKDHITALYPYMVSDEKSDFHYYILQVFRCTFEKLANFKQKFLYDLETTLLSRLPKMNVREIDEAMPLIWSVATHRHDTARVAKACSSCLSHLHPYINKANNEEAAIVVDGKLQRLIYLSTGFARFCFPKPSNDKIAFLQEGETLYEHITKCLLVLSKDKITHVIRRVAVKNLTKLCGNHPKLFNSRHVLHLLDKEFQSDQLDIKLVILESLYDLFLLEERKSVRNTGVNSTLSSNSILKKKLLKTNRVEFANDGVCSALATRFLDNILQLCLLRDLKNSLVAIRLLKLILKFGYTNPSHSIPTVIALFASTSQYIRHVAYELLEDLFEKYETLVFSSLSRGVTKAIHYSIHTDEKYYYKHDHFLSLLEKLCGTGKKNGPKFFKVLKRIMQSYLDDITDLTSTNSSVQKSIFVLCTNISNITFVSQYDLVSLLKTIDLTTDRLKEVIMDEIGDNVSSLSVSEEKLSGIILIQLSLQDLGTYLLHLYGLRDDVLLLDIVEESELKNKQLPAKKPDISKFSAQLENIEQYSSNGKLLTYFRKHVKDT
notes: Scc2, S. cerevisiae; source: S. cerevisiae W303, in vivo, whole-cell extract

- crosslink relative to wild-type Smc3 [2]: ~10%
B2: Scc2 T1175C (natural protein, S. cerevisiae, UniProt Q04002 1-1493, looked up)
chain: B1 chain with C369D, T1175C
notes: as for B1

Reference: publication PMC10516938, “Conformational dynamics of cohesin/Scc2 loading complex are regulated by Smc3 acetylation and ATP binding” (Nature Communications, 2023)
